Laboratory results reported in patent US20140289906A1, “Compositions Having Dicamba Decarboxylase Activity and Methods of Use” (priority 2013, published 2014).

What was measured:
[1] = Enzyme kinetic characterization (kcat, KM, kcat/KM) of dicamba decarboxylase variants (Table 9)
[2] = 14C assay: 14CO2 capture from [14C]-carboxyl-labeled dicamba with IPTG-induced recombinant E. coli cells; conditions: dicamba decarboxylation activity
[3] = Dicamba decarboxylation activity of computationally designed protein variants and parents (Tables 4, 5); conditions: native proteins and designed variants; assay not specified
[4] = LC-MS/MS detection of 4-chloro-3-methoxy phenol; assay type: biochemical; conditions: purified protein, dicamba
[5] = GC/MS detection of 2,5-dichloro anisole (2,5-DCA), toluene trapping or head-space; assay type: biochemical; conditions: purified protein, dicamba, toluene capturing
Procedure: Alternatively, dicamba decarboxylase activity can be monitored by measuring decarboxylation products other than CO2 using product detection methods. The decarboxylation product of dicamba, 2,5-dichloro anisole or 2,5-DCA (FIG. 1C), is a volatile compound with a flash point of 21° C. To capture this volatile compound for detection, 140 ul of toluene solution is added on top of 1 ml reaction mixture to form a trapping layer in a 1.5 ml eppendorf tube. […] The reaction is kept still at room temperature overnight before being vortex mixed and centrifuged at 14,000 rpm for 15 minutes. The top toluene phase is carefully removed using a micropipette and transferred into a 12×32 mm polypropylene vial (Vial 11 mm) from MicroLiter Analytical Supplies, Inc. (catalog number 11-5300-100). The vial is sealed with Crimp seal (11 mm with FEP/Nat Rubber) from MicroLiter Analytical Supplies, Inc. (catalog number 11-0020A) using a E-Z Crimper™ 11 mm from Wheaton Inc. 1 ul of the toluene mixture is taken from the sealed vials and injected in splitless mode into a GC/MS system for sample analysis (Agilent GC/MS system with a 6890A GC, a 5973N MSD and a CTC CombiPAL auto-sampler or with a 7890A GC, a 5975C MSD and an Agilent GC Sampler 80 auto-sampler). The GC parameters are: Agilent DB-5MS column (30 m length, 0.25 mm diameter, 0.25 um film) or equivalent; The GC inlet temperature, 250° C.; Carry gas, helium in constant flow mode (1.2 mL/min); The GC oven temperature program, initial temperature at 70° C. for 1 min, ramping to 200° C. at 15° C./min, and then ramping to 250° C. at 30° C./min. MS data acquisition is done in SIM (selected ion monitoring) mode, monitoring the positive ion at M/Z 176 for the molecular ion of […]. The solvent delay for MS acquisition is set at 4 min. Another method for detection of 2,5-DCA is a head-space GC/MS method. Briefly, reaction mixtures in 500 ul reaction volume are prepared in 1.5 ml 12×32 mm glass vials (Microliter Analytical Supplies, Cat#11-1200) for head space analysis. Glass vials are sealed with magnetic cap from MicroLiter Analytical Supplies, Inc. (catalog number 11-0030AT) using a E-Z Crimper™ 11 mm from Wheaton Industries Inc. The reaction is carried out at room temperature for various amount of time and stopped by heating at 95° C. for 5 min. The reaction vial is transferred to a agitator for incubation at 80° C. for 5 min at 500 rpm. With a syringe preheated at 80° C., 1000 uL of head space is injected with sample fill speed at 100 uL/sec. GC/MS parameters for headspace analysis are the same as for liquid sample analysis.

[6] = GC/MS detection of 2,5-dichloro phenol (2,5-DCP); kinetic determination; assay type: biochemical; conditions: purified protein, dicamba
[7] = 14C assay: 14CO2 capture from [14C]-carboxyl-labeled dicamba with purified protein; assay type: biochemical

| Molecule | protein kinetic activity (substrate concentration versus reaction velocity) over SEQ ID NO:109 ([1]; FIG. 6) | Enzymatic Detection level [2] | kcat ([1]; substrate dicamba, purified protein) [s⁻¹] | dicamba decarboxylase activity (statement in the description) [3] | 4-chloro-3-methoxy phenol product detected [4] | 2,5-DCA product detected [5] | 2,5-DCP product detected [6] | CO2 product detected [7] |
| --- | --- | --- | --- | --- | --- | --- | --- | --- |
| 123 (protein, Dicamba decarboxylase variant clone S03902153) MAQGKVALEEHFAIPETLQDSAGFVPGDYWKELQHRLLDIQDTRLKLMDAHGIETMILSLAAPAVQAIPDRRKAIEIARRANDVLAEECAKRPDRFLAFAALPLQDPDAATEELQRCVNDLGFVGALVNGFSQEGDGQTPLYYDLPQYRPFWGEVEKLDVPFYLHPRNPLPQDSRIYDGHPWLLGPTWAFAQETAVHALRLMASGLFDEHPRLNIILGHMGEGLPYMMWRIDHRVAWVKLPPRYPAKRRFMDYFNENFHITTSGNFRTQTLIDAILEIGADRILFSTDWPFENIDHASDWFNATSIAEADRVKIGRTNARRLFKLDGA | improvement | High |  |  |  |  |  |  |
| 126 (protein, Dicamba decarboxylase variant clone S03970792) MAQGKVALEEHFAIPETLQDSAGFVPGDYWKELQHRLLDIQDTRLKLMDAHGIETMILSLAAPAVQAIPDRRKAIEIARRANDFLAEECAKRPDRFLAFAALPLQDPDAATEELQRCVNDLGFVGALVNGFSQEGDGQTPLYYDLPQYRPFWGEVEKLDVPFYLHPRNPLPQDSRIYDGHPWLLGPTWAFAQETAVHALRLMASGLFDEHPRLNIILGHMGEGLPYMMYRIDHRIAWVKLPPRYPAKRRFMDYFNENFHITTSGNFRTQTLIDAILEIGADRILFSTDWPFENIDHAADWFNATSIAEADRVKIGRTNARRLFKLDGA |  | High | 0.03967 |  |  |  |  |  |
| 118 (protein, Dicamba decarboxylase variant clone DC.5.033) MAKKPRIDMHSHFFPRISEQEAAKFDANHAPWLQVSAKGDTGSIMMGKNNFQPVYQALWDPAFRIEEMDAQGVDVQVTCATPVMFGYTWEANKAAQWAERMNDFALEFAAHNPQRIKVLAQVPLQDLDLACKEASRAVAAGHLGIQIGNHLGDKDLDDATLEAFLTHCANEDIPILVHGTDMMGGQRMKKWGLPWLVALAAEVQLAILSLILSGAFERIPKSLKICFSHGGGSFAFLLGLVDEAWRHVDIVREDCPRPPSEYVDRFFVDSVGNPGALELLVSVMGEDRVMLGSDYPHTTGEQKIGGLVLSSNLGESAKDKIISGNASKFFNINV |  | High |  | have dicamba decarboxylase activity | not detected | detected | not detected | not detected |
| 119 (protein, Dicamba decarboxylase variant cloneDC.5.034) MAKKPRIDMHSHFFPRISEQEAAKFDANHAPWLQVSAKGDTGSIMMGKNNFQPVYQALWDPAFRIEEMDAQGVDVQVTCATPVMFGYTWEANKAAQWAERMNDFALEFAAHNPQRIKVLAQVPLQDLDLACKEASRAVAAGHLGIQIGNHLGDKDLDDATLEAFLTHCANEDIPILVHGWDMMGGQRMKKWGLYWLVAHHAEVQLAILSLILSGAFERIPKSLKICFSHGGGSFAFTLGWVDEAWRHVDIVREDCPRPPSEYVDRFFVDSVGNPGALELLVSVMGEDRVMLGSDYPLTTGEQKIGGLVLSSNLGESAKDKIISGNASKFFNINV |  | High |  | have dicamba decarboxylase activity | not detected | detected | not detected | not detected |
| 121 (protein, Dicamba decarboxylase variant clone DC.12.014) MAIIDCHGHYTTTPKGVEDYRNAQKAAVAKDPSFKGEKGQVVVSDDEIRESIENNQLKMQRERGTDLTIFSPRWDAGGHHIGNEYTSQFWTEHQNDLIRRVCDLFPKNFAPVAQLPQSPGVDPAKSVPEIVRTVEQMGFIGINLNPDPSGGYWKDTSLADRAFYPIYEKMVEYDIPAMIHPRLACNACFHTGLSVGLGADTTGFQQLIMSDVFKDFPSLKIIIPHGGGAVPYHWGRFRGLMQDQGYAPLEESALKNIYFDTCVYHQRGIDLLLDIVPTQNILFASEMIGAVRGIDPETGHNFDDTKRYIDNNTALNAEEKAMIFEGNARRVFSRLKTD |  | High |  | have dicamba decarboxylase activity | not detected | detected | not detected | not detected |
| 117 (protein, Dicamba decarboxylase variant clone DC.5.008) MAKKPRIDMHSHFFPRISEQEAAKFDANHAPWLQVSAKGDTGSIMMGKNNFRPVYQALWDPAFRIEEMDAQGVDVQVTCATPVMFGYTWEANKAAQWAERMNDFALEFAAHNPQRIKVLAQVPLQDLDLACKEASRAVAAGHLGIQIGNHLGDKDLDDATLEAFLTHCANEDIPILVHPWDMMGGQRMKKWMLPVLVAAPAEVQLAILSLILSGAFERIPKSLKICFAGGGGSFAFLLGIVDLAWRHRDIVREDCPRPPSEYVDRFFVDSLVFNPGALELLVSVMGEDRVMLGSDYPFPTGEQKIGGLVLSSNLGESAKDKIISGNASKFFNINV |  | High |  | have dicamba decarboxylase activity | not detected | detected | not detected | not detected |
| 120 (protein, Dicamba decarboxylase variant clone DC.12.002) MAIIDCHGHYTTTPKGVETYRNAQKAAVAKDPSFKYEKGQVVVSDDEIRESIENNQLKMQRERGTDLTIFSPRSTAGGHHIGNEYTSQFWTEHQNDLIRRVCDLFPKNFAPVAQLPQSPGVDPAKSVPEIVRTVEQMGFIGINLNPDPSGGYWKDTSLADRAFYPIYEKMVEYDIPAMIHPRNACNDCFHTTGSHALGADTTGFQQLIMSDVFKDFPSLKIIIPHGGGAVPYHWGRFRGLMQDQGYAPLEESALKNIYFDTCVYHQRGIDLLLDIVPTQNILFASEMIGAVRGIDAETGHNFDDTKRYIDNNTALNAEEKAMIFEGNARRVFSRLKTD |  | High |  | have dicamba decarboxylase activity | not detected | detected | not detected | not detected |
| 122 (protein, Dicamba decarboxylase variant clone DC.12.103) MAIIDCHGHYTTTPKGVEDYRNAQKAAVAKDPSFKGEKGQVVVSDDEIRESIENNQLKMQRERGTDLTIFSPRSTAGGHHIGNEYTSQFWTEHQNDLIRRVCDLFPKNFAPVAQLPQSPGVDPAKSVPEIVRTVEQMGFIGINLNPDPSGGYWKDTSLADRAFYPIYEKMVEYDIPAMIHPRNACNDCFHTTGSHALGADTTGFQQLIMSDVFKDFPSLKIIIPHGGGAVPYHWGRFRGLMQDQGYAPLEESALKNIYFDTCVYHQRGIDLLLDIVPTQNILFASDMIGAVRGIDPETGHNFDDTKRYIDNNTALNAEEKAMIFEGNARRVFSRLKTD |  | High |  | have dicamba decarboxylase activity | not detected | detected | not detected | not detected |
